Target: MR1-restricted antigen synthesized by S. Typhimurium and highly abundant in that microbe peptide on MR1 (human)
Assay: T cell clone or line
[1] = chains alpha TRAV1-2 TRAJ33 CDR3:beta TRBV3-1 TRBJ2-2 CDR3

B1: 571F3-2 (peptide)
chain 1: CAVRDSNYQLI
chain 2: CASSEASGGTDTQY
geometric MFI (chains alpha TRAV1-2 TRAJ33 CDR3:beta TRBV6-4 TRBJ2-3 CDR3): 2760

B2: 450A9 (peptide)
chain 1: CAVRDSNYQLI
chain 2: CSAREVEGTYEQY
geometric MFI (chains alpha TRAV1-2 TRAJ33 CDR3:beta TRBV20-1 TRBJ2-7 CDR3): 2030

B3: 450B9 (peptide)
chain 1: CAVMDSNYQLI
chain 2: CASTPSGEFSEAF
geometric MFI (chains alpha TRAV1-2 TRAJ33 CDR3:beta TRBV6-1 TRBJ1-1 CDR3): 2520

B4: D0033A10 (peptide)
chain 1: CAVTDSNYQLI
chain 2: CASSSGLEVTGELF
geometric MFI [1]: 2130

B5: D0033A2 (peptide)
chain 1: CAVTDSNYQLI
chain 2: CASSQAETELNTGELF
geometric MFI [1]: 2480

B6: 427D8-2 (peptide)
chain 1: CAVMDSNYQLI
chain 2: CASSLLRQGTEKLF
geometric MFI (chains alpha TRAV1-2 TRAJ33 CDR3:beta TRBV5-1 TRBJ1-4 CDR3): 3440

B7: D0033A6 (peptide)
chain 1: CAVVDSNYQLI
chain 2: CASSHSSGTGGNEQF
geometric MFI (chains alpha TRAV1-2 TRAJ33 CDR3:beta TRBV4-2 TRBJ2-1 CDR3): 2620

B8: 403A9 (peptide)
chain 1: CAVVDSNYQLI
chain 2: CSARDGGEAYNEQF
geometric MFI (chains alpha TRAV1-2 TRAJ33 CDR3:beta TRBV20-1 TRBJ2-1 CDR3): 1600

From paper PMC7541710
